# Results taken from patent US20240166750A1 (published 2024).
# Biological target: T1, Recombinant human FcγRIIIa-V158 (human, UniProt P08637 17-208)
# Test: SPR; -kif
# T1 sequence (P08637 17-208 F176V): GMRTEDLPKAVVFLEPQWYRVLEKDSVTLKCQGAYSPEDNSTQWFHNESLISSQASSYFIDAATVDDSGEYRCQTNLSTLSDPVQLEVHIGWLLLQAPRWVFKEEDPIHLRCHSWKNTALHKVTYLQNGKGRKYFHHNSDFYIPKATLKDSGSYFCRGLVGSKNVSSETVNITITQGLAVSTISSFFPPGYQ
row,Binder,Kd [nM]
1,"human IgG1 antibody specific for protein 4, S239D/S298A + R292C/V302C, -Kif (antibody) ASTKGPSVFPLAPSSKSTSGGTAALGCLVKDYFPEPVTVSWNSGALTSGVHTFPAVLQSSGLYSLSSVVTVPSSSLGTQTYICNVNHKPSNTKVDKKVEPKSCDKTHTCPPCPAPELLGGPDVFLFPPKPKDTLMISRTPEVTCVVVDVSHEDPEVKFNWYVDGVEVHNAKTKPCEEQYNATYRCVSVLTVLHQDWLNGKEYKCKVSNKALPAPIEKTISKAKGQPREPQVYTLPPSRDELTKNQVSLTCLVKGFYPSDIAVEWESNGQPENNYKTTPPVLDSDGSFFLYSKLTVDKSRWQQGNVFSCSVMHEALHNHYTQKSLSLSPGK",41.8
2,"human IgG1 antibody specific for protein 4, S239D + R292C/V302C, -Kif (antibody) ASTKGPSVFPLAPSSKSTSGGTAALGCLVKDYFPEPVTVSWNSGALTSGVHTFPAVLQSSGLYSLSSVVTVPSSSLGTQTYICNVNHKPSNTKVDKKVEPKSCDKTHTCPPCPAPELLGGPDVFLFPPKPKDTLMISRTPEVTCVVVDVSHEDPEVKFNWYVDGVEVHNAKTKPCEEQYNSTYRCVSVLTVLHQDWLNGKEYKCKVSNKALPAPIEKTISKAKGQPREPQVYTLPPSRDELTKNQVSLTCLVKGFYPSDIAVEWESNGQPENNYKTTPPVLDSDGSFFLYSKLTVDKSRWQQGNVFSCSVMHEALHNHYTQKSLSLSPGK",68.6
3,"human IgG1 antibody specific for protein 4, S239D/I332E + R292C/V302C, -Kif (antibody) ASTKGPSVFPLAPSSKSTSGGTAALGCLVKDYFPEPVTVSWNSGALTSGVHTFPAVLQSSGLYSLSSVVTVPSSSLGTQTYICNVNHKPSNTKVDKKVEPKSCDKTHTCPPCPAPELLGGPDVFLFPPKPKDTLMISRTPEVTCVVVDVSHEDPEVKFNWYVDGVEVHNAKTKPCEEQYNSTYRCVSVLTVLHQDWLNGKEYKCKVSNKALPAPEEKTISKAKGQPREPQVYTLPPSRDELTKNQVSLTCLVKGFYPSDIAVEWESNGQPENNYKTTPPVLDSDGSFFLYSKLTVDKSRWQQGNVFSCSVMHEALHNHYTQKSLSLSPGK",11.1
4,"human IgG1 antibody specific for protein 4, S239D/I332E + T256D/T307Q + R292C/V302C, -Kif (antibody) ASTKGPSVFPLAPSSKSTSGGTAALGCLVKDYFPEPVTVSWNSGALTSGVHTFPAVLQSSGLYSLSSVVTVPSSSLGTQTYICNVNHKPSNTKVDKKVEPKSCDKTHTCPPCPAPELLGGPDVFLFPPKPKDTLMISRDPEVTCVVVDVSHEDPEVKFNWYVDGVEVHNAKTKPCEEQYNSTYRCVSVLQVLHQDWLNGKEYKCKVSNKALPAPEEKTISKAKGQPREPQVYTLPPSRDELTKNQVSLTCLVKGFYPSDIAVEWESNGQPENNYKTTPPVLDSDGSFFLYSKLTVDKSRWQQGNVFSCSVMHEALHNHYTQKSLSLSPGK",15.1
5,"human IgG1 antibody specific for protein 4, S239D/S298A + T256D/T307Q, -Kif (antibody) ASTKGPSVFPLAPSSKSTSGGTAALGCLVKDYFPEPVTVSWNSGALTSGVHTFPAVLQSSGLYSLSSVVTVPSSSLGTQTYICNVNHKPSNTKVDKKVEPKSCDKTHTCPPCPAPELLGGPDVFLFPPKPKDTLMISRDPEVTCVVVDVSHEDPEVKFNWYVDGVEVHNAKTKPREEQYNATYRVVSVLQVLHQDWLNGKEYKCKVSNKALPAPIEKTISKAKGQPREPQVYTLPPSRDELTKNQVSLTCLVKGFYPSDIAVEWESNGQPENNYKTTPPVLDSDGSFFLYSKLTVDKSRWQQGNVFSCSVMHEALHNHYTQKSLSLSPGK",30.7
6,"human IgG1 antibody specific for protein 4, S239D + T256D/T307Q, -Kif (antibody) ASTKGPSVFPLAPSSKSTSGGTAALGCLVKDYFPEPVTVSWNSGALTSGVHTFPAVLQSSGLYSLSSVVTVPSSSLGTQTYICNVNHKPSNTKVDKKVEPKSCDKTHTCPPCPAPELLGGPDVFLFPPKPKDTLMISRDPEVTCVVVDVSHEDPEVKFNWYVDGVEVHNAKTKPREEQYNSTYRVVSVLQVLHQDWLNGKEYKCKVSNKALPAPIEKTISKAKGQPREPQVYTLPPSRDELTKNQVSLTCLVKGFYPSDIAVEWESNGQPENNYKTTPPVLDSDGSFFLYSKLTVDKSRWQQGNVFSCSVMHEALHNHYTQKSLSLSPGK",60.4

# Biological target: T1, Recombinant human FcγRIIIa-V158
# Test: SPR; +kif
row,Binder,Kd [nM]
1,"human IgG1 antibody specific for protein 4, S239D + R292C/V302C, +Kif (antibody) ASTKGPSVFPLAPSSKSTSGGTAALGCLVKDYFPEPVTVSWNSGALTSGVHTFPAVLQSSGLYSLSSVVTVPSSSLGTQTYICNVNHKPSNTKVDKKVEPKSCDKTHTCPPCPAPELLGGPDVFLFPPKPKDTLMISRTPEVTCVVVDVSHEDPEVKFNWYVDGVEVHNAKTKPCEEQYNSTYRCVSVLTVLHQDWLNGKEYKCKVSNKALPAPIEKTISKAKGQPREPQVYTLPPSRDELTKNQVSLTCLVKGFYPSDIAVEWESNGQPENNYKTTPPVLDSDGSFFLYSKLTVDKSRWQQGNVFSCSVMHEALHNHYTQKSLSLSPGK",8.97
2,"human IgG1 antibody specific for protein 4, S239D/S298A + T256D/T307Q, +Kif (antibody) ASTKGPSVFPLAPSSKSTSGGTAALGCLVKDYFPEPVTVSWNSGALTSGVHTFPAVLQSSGLYSLSSVVTVPSSSLGTQTYICNVNHKPSNTKVDKKVEPKSCDKTHTCPPCPAPELLGGPDVFLFPPKPKDTLMISRDPEVTCVVVDVSHEDPEVKFNWYVDGVEVHNAKTKPREEQYNATYRVVSVLQVLHQDWLNGKEYKCKVSNKALPAPIEKTISKAKGQPREPQVYTLPPSRDELTKNQVSLTCLVKGFYPSDIAVEWESNGQPENNYKTTPPVLDSDGSFFLYSKLTVDKSRWQQGNVFSCSVMHEALHNHYTQKSLSLSPGK",14
3,"human IgG1 antibody specific for protein 4, S239D/S298A + T256D/T307Q + R292C/V302C, +Kif (antibody) ASTKGPSVFPLAPSSKSTSGGTAALGCLVKDYFPEPVTVSWNSGALTSGVHTFPAVLQSSGLYSLSSVVTVPSSSLGTQTYICNVNHKPSNTKVDKKVEPKSCDKTHTCPPCPAPELLGGPDVFLFPPKPKDTLMISRDPEVTCVVVDVSHEDPEVKFNWYVDGVEVHNAKTKPCEEQYNATYRCVSVLQVLHQDWLNGKEYKCKVSNKALPAPIEKTISKAKGQPREPQVYTLPPSRDELTKNQVSLTCLVKGFYPSDIAVEWESNGQPENNYKTTPPVLDSDGSFFLYSKLTVDKSRWQQGNVFSCSVMHEALHNHYTQKSLSLSPGK",12.8
4,"human IgG1 antibody specific for protein 4, S239D + T256D/T307Q + R292C/V302C, +Kif (antibody) ASTKGPSVFPLAPSSKSTSGGTAALGCLVKDYFPEPVTVSWNSGALTSGVHTFPAVLQSSGLYSLSSVVTVPSSSLGTQTYICNVNHKPSNTKVDKKVEPKSCDKTHTCPPCPAPELLGGPDVFLFPPKPKDTLMISRDPEVTCVVVDVSHEDPEVKFNWYVDGVEVHNAKTKPCEEQYNSTYRCVSVLQVLHQDWLNGKEYKCKVSNKALPAPIEKTISKAKGQPREPQVYTLPPSRDELTKNQVSLTCLVKGFYPSDIAVEWESNGQPENNYKTTPPVLDSDGSFFLYSKLTVDKSRWQQGNVFSCSVMHEALHNHYTQKSLSLSPGK",13.1
5,"human IgG1 antibody specific for protein 4, S239D + T256D/T307Q, +Kif (antibody) ASTKGPSVFPLAPSSKSTSGGTAALGCLVKDYFPEPVTVSWNSGALTSGVHTFPAVLQSSGLYSLSSVVTVPSSSLGTQTYICNVNHKPSNTKVDKKVEPKSCDKTHTCPPCPAPELLGGPDVFLFPPKPKDTLMISRDPEVTCVVVDVSHEDPEVKFNWYVDGVEVHNAKTKPREEQYNSTYRVVSVLQVLHQDWLNGKEYKCKVSNKALPAPIEKTISKAKGQPREPQVYTLPPSRDELTKNQVSLTCLVKGFYPSDIAVEWESNGQPENNYKTTPPVLDSDGSFFLYSKLTVDKSRWQQGNVFSCSVMHEALHNHYTQKSLSLSPGK",19.7
6,"human IgG1 antibody specific for protein 4, T256D/T307Q + R292C/V302C, +Kif (antibody) ASTKGPSVFPLAPSSKSTSGGTAALGCLVKDYFPEPVTVSWNSGALTSGVHTFPAVLQSSGLYSLSSVVTVPSSSLGTQTYICNVNHKPSNTKVDKKVEPKSCDKTHTCPPCPAPELLGGPSVFLFPPKPKDTLMISRDPEVTCVVVDVSHEDPEVKFNWYVDGVEVHNAKTKPCEEQYNSTYRCVSVLQVLHQDWLNGKEYKCKVSNKALPAPIEKTISKAKGQPREPQVYTLPPSRDELTKNQVSLTCLVKGFYPSDIAVEWESNGQPENNYKTTPPVLDSDGSFFLYSKLTVDKSRWQQGNVFSCSVMHEALHNHYTQKSLSLSPGK",153
7,"human IgG1 antibody specific for protein 4, S239D/I332E + R292C/V302C, +Kif (antibody) ASTKGPSVFPLAPSSKSTSGGTAALGCLVKDYFPEPVTVSWNSGALTSGVHTFPAVLQSSGLYSLSSVVTVPSSSLGTQTYICNVNHKPSNTKVDKKVEPKSCDKTHTCPPCPAPELLGGPDVFLFPPKPKDTLMISRTPEVTCVVVDVSHEDPEVKFNWYVDGVEVHNAKTKPCEEQYNSTYRCVSVLTVLHQDWLNGKEYKCKVSNKALPAPEEKTISKAKGQPREPQVYTLPPSRDELTKNQVSLTCLVKGFYPSDIAVEWESNGQPENNYKTTPPVLDSDGSFFLYSKLTVDKSRWQQGNVFSCSVMHEALHNHYTQKSLSLSPGK",5.46
8,"human IgG1 antibody specific for protein 4, S239D/S298A + R292C/V302C, +Kif (antibody) ASTKGPSVFPLAPSSKSTSGGTAALGCLVKDYFPEPVTVSWNSGALTSGVHTFPAVLQSSGLYSLSSVVTVPSSSLGTQTYICNVNHKPSNTKVDKKVEPKSCDKTHTCPPCPAPELLGGPDVFLFPPKPKDTLMISRTPEVTCVVVDVSHEDPEVKFNWYVDGVEVHNAKTKPCEEQYNATYRCVSVLTVLHQDWLNGKEYKCKVSNKALPAPIEKTISKAKGQPREPQVYTLPPSRDELTKNQVSLTCLVKGFYPSDIAVEWESNGQPENNYKTTPPVLDSDGSFFLYSKLTVDKSRWQQGNVFSCSVMHEALHNHYTQKSLSLSPGK",8.76
9,"human IgG1 antibody specific for protein 4, S239D/I332E + T256D/T307Q + R292C/V302C, +Kif (antibody) ASTKGPSVFPLAPSSKSTSGGTAALGCLVKDYFPEPVTVSWNSGALTSGVHTFPAVLQSSGLYSLSSVVTVPSSSLGTQTYICNVNHKPSNTKVDKKVEPKSCDKTHTCPPCPAPELLGGPDVFLFPPKPKDTLMISRDPEVTCVVVDVSHEDPEVKFNWYVDGVEVHNAKTKPCEEQYNSTYRCVSVLQVLHQDWLNGKEYKCKVSNKALPAPEEKTISKAKGQPREPQVYTLPPSRDELTKNQVSLTCLVKGFYPSDIAVEWESNGQPENNYKTTPPVLDSDGSFFLYSKLTVDKSRWQQGNVFSCSVMHEALHNHYTQKSLSLSPGK",5.24
10,"human IgG1 antibody specific for protein 4, S239D/I332E + T256D/T307Q, +Kif (antibody) ASTKGPSVFPLAPSSKSTSGGTAALGCLVKDYFPEPVTVSWNSGALTSGVHTFPAVLQSSGLYSLSSVVTVPSSSLGTQTYICNVNHKPSNTKVDKKVEPKSCDKTHTCPPCPAPELLGGPDVFLFPPKPKDTLMISRDPEVTCVVVDVSHEDPEVKFNWYVDGVEVHNAKTKPREEQYNSTYRVVSVLQVLHQDWLNGKEYKCKVSNKALPAPEEKTISKAKGQPREPQVYTLPPSRDELTKNQVSLTCLVKGFYPSDIAVEWESNGQPENNYKTTPPVLDSDGSFFLYSKLTVDKSRWQQGNVFSCSVMHEALHNHYTQKSLSLSPGK",7.59
